Residue numbers refer to the chain shown, from its start. Names and notes keep the numbering of the source.
Experiments:
Settings in all cases: both partners purified
Cll2 toxin = molecular target: T1, Cll2 toxin (Centruroides limpidus); experiment: SPR
T1 construct: source: purified from scorpion venom
T1 chain: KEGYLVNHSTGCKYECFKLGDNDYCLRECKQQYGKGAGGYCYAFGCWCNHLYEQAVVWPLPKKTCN

Cll1 toxin = molecular target: T2, Cll1 toxin (Centruroides limpidus); experiment: SPR
T2 construct: source: purified from scorpion venom
T2 chain: T1 chain with L5I, H8L, F17Y, N49T, N66T

Cn2 toxin [1] = molecular target: T3, Cn2 toxin (Centruroides noxius); experiment: SPR
T3 construct: source: purified from scorpion venom

Ct1a toxin = molecular target: T4, Ct1a toxin (Centruroides tecomanus); experiment: SPR
T4 construct: source: purified from scorpion venom
T4 chain: T1 chain with K30R, N49T

Css4 toxin = molecular target: T5, Css4 toxin (Centruroides suffusus, UniProt P60266); experiment: SPR
T5 construct: source: purified from scorpion venom

CeII9 toxin = molecular target: T6, CeII9 toxin (Centruroides elegans)
T6 construct: also called Cell9; source: purified from scorpion venom
T6 chain: T1 chain with K30R, Q32K, N49T

Css2 toxin [2] = molecular target: T7, Css2 toxin (Centruroides suffusus)
T7 construct: source: purified from scorpion venom
T7 chain: T1 chain with N7S, H8K, F17L, G36S, A37S, G45A, N49T, K62N

Css2 toxin [3] = molecular target: T7, Css2 toxin; experiment: SPR
Cn2 toxin [4] = molecular target: T3, Cn2 toxin; experiment: SPR; remark: listed apart in the source

B1: scFv 10FG2 (scFv, V domains shown)
VH: QVNLRESGGGLVQPGGSLRLSCAASGFSFGSYGMHWVRQAPGKGLEWVAVISYGGGSKYYADSVKGRFTISRDNSKNTLYLQMNSLRAEDTAVYYCAKDARDCLLCSDWTFDLWGRGTLVTVSS
VL: NFMLTQPHSASGTPGQRVTISCSGSSSNIGSNTVNWYRHLPGSAPELLIGSHNQRPSGVPDRFSGSKSGTSASLAISGLQSEDEADYYCAAWDDSTLGYVFGTGTKLTVL
notes: also called 10F5; scFv 10F5
Question: Which Kd (Cll2 toxin) does the source give for B1 here?
Answer: 4.2 nM

Question: And the “TR (time of residence)” value (Cll2 toxin)?
Answer: 18.5 min

Question: And the koff (Cll2 toxin)?
Answer: 0.0009 s⁻¹

Question: What about the kon (Cll2 toxin) of the same binder?
Answer: 220000 M⁻¹ s⁻¹

Question: And the Kd (Cll1 toxin)?
Answer: 0.23 nM

Question: And the “TR (time of residence)” value (Cll1 toxin)?
Answer: 264 min

Question: And the koff (Cll1 toxin)?
Answer: 6.3e-05 s⁻¹

Question: And the kon (Cll1 toxin)?
Answer: 265000 M⁻¹ s⁻¹

Question: And the Kd (Cn2 toxin [1])?
Answer: 0.7 nM

Question: What about the “TR (time of residence)” value (Cn2 toxin [1]) of the same binder?
Answer: 163 min

Question: And the koff (Cn2 toxin [1])?
Answer: 0.000102 s⁻¹

Question: What about the kon (Cn2 toxin [1]) of the same binder?
Answer: 150000 M⁻¹ s⁻¹

Question: What about the Kd (Ct1a toxin) of the same binder?
Answer: 8 nM

Question: What about the “TR (time of residence)” value (Ct1a toxin) of the same binder?
Answer: 16.7 min

Question: What about the koff (Ct1a toxin) of the same binder?
Answer: 0.001 s⁻¹

Question: What about the kon (Ct1a toxin) of the same binder?
Answer: 170000 M⁻¹ s⁻¹

Question: Does B1 bind (Css4 toxin)?
Answer: binds

Question: And the Kd (CeII9 toxin)?
Answer: 6.1 nM

Question: And the koff (CeII9 toxin)?
Answer: 0.000925 s⁻¹

Question: What about the kon (CeII9 toxin) of the same binder?
Answer: 150000 M⁻¹ s⁻¹

Question: And the Kd (Css2 toxin [2])?
Answer: 2.75 nM

Question: What about the koff (Css2 toxin [2]) of the same binder?
Answer: 0.00055 s⁻¹

Question: What about the kon (Css2 toxin [2]) of the same binder?
Answer: 195000 M⁻¹ s⁻¹

B2: scFv 10F1 (scFv, V domains shown)
VH: B1 VH with S107A
VL: B1 VL with S25I
notes: VH, linker (G125 to S139), VL on one chain; numbers run through the whole scFv; 10F with A204G; source: expression vector pSyn1, purified (Ni2+-NTA, Superdex 75 gel filtration), monomer
Question: What does the source list for B2?
Answer: binding result (Css2 toxin [3]): binds; binding result (Cn2 toxin [4]): binds; binding result (Css4 toxin): binds

B3: scFv 10F4 (scFv, V domains shown)
VH: B1 VH with T110N
VL: B1 VL
Question: Does B3 bind (Css2 toxin [3])?
Answer: binds

Question: Does B3 bind (Cn2 toxin [4])?
Answer: binds

Question: Does B3 bind (Css4 toxin)?
Answer: binds

B4: scFv 10F (scFv, V domains shown)
VH: B1 VH with S107A
VL: B1 VL with S25I, G65A
Question: Does B4 bind (Cn2 toxin [4])?
Answer: binds

— publication PMC6356842 (Toxins, 2019)
